Laboratory results: patent US8063181B2, “Method for the production of cyclic molecules” (ZYRUS Beteiligungsgesellschaft mbH & Co. Patent I KG, priority 2003, dated 2011)

Legend:
[1] = substrate: CCC(C)[C@H](NC(=O)[C@H](Cc1ccc(O)cc1)NC(=O)[C@@H](CCC(N)=O)NC(=O)[C@@H]1CCCN1C(=O)[C@@H](C)NC(=O)[C@@H](CCC(=O)O)NC(=O)[C@H](NC(=O)[C@H](Cc1ccc(O)cc1)NC(=O)[C@H](CCCN)NC(=O)[C@H](CCC(=O)O)NC(C)=O)C(C)O)C(=O)Sc1ccccc1; assay: cyclization kinetics with fengycin-peptide cyclase; assay type: biochemical; details: other: cyclization reaction, Lineweaver-Burk plot, 25 mM HEPES, 50 mM NaCl, pH 7, room temperature
Method: The purified substrate with the leaving group according to the present invention is then incubated with the respective peptide cyclase in the ratio of 1 (enzyme): 100 (substrate) in 25 mM HEPES, 50 mM NaCl at pH 7 and room temperature for 30-60 minutes. The production of the HEPES solution is known to persons skilled in the art and was described in J. Sambrook, E. F. Fritsch and T. Maniatis: Molecular Cloning: A Laboratory Manual Vol. I-III, Cold Spring Harbor Laboratory Press, 1982. The identification and quantification of the reaction product is carried out by means of analytical HPLC.
The cyclization of the linear fengycin-thiophenol substrate is carried out in an aqueous cyclization buffer comprised of 2-[4-(2-hydroxyethyl)-1-piperazinyl]-ethane sulfonic acid (HEPES, 25 mM) and sodium chloride (NaCl, 50 mM) at pH 7 in a total volume of 50 μL. The substrate concentration is 100 μM for standard cyclization reactions. The cyclization reaction is initiated by the addition of recombinant fengycin TE at an end concentration of 5 μM and stopped by the addition of 35 μL of 4% trifluoroacetic acid (TFA) in water after 4 hours. […]
With this measurement, the linear range for further kinetic studies is determined. […]

[2] = substrate: CC(C)C[C@H](NC(=O)[C@@H](CC(=O)O)NC(=O)[C@H](NC(=O)[C@H](CN)NC(=O)[C@@H](CC(C)C)NC(=O)[C@@H](CCC(=O)O)NC(=O)CC(C)O)C(C)C)C(=O)N[C@H](CC(C)C)C(=O)Sc1ccccc1; assay: cyclization kinetics with surfactin-peptide cyclase; assay type: biochemical; details: other: cyclization reaction; pH 7.0; 40.0 °C
Method: […] The production of the HEPES solution is known to persons skilled in the art and was described in J. Sambrook, E. F. Fritsch and T. Maniatis: Molecular Cloning: A Laboratory Manual Vol. I-III, Cold Spring Harbor Laboratory Press, 1982. The identification and quantification of the reaction product is carried out by means of analytical HPLC.
With this measurement, the linear range for further kinetic studies is determined. The reactions are stopped by the addition of 35 μL TFA (4% in water) and examined by analytic HPLC with a Nucleodur C18 column (Macherey and Nagel, 250/3, pore diameter: 100 Å, particle size: 3 μm) with the following gradient: 0-35 min, 30-60% acetonitrile/0.1% TFA in water/0.1% TFA; 0.4 mL/min, 40° C. Kinetic examinations are carried out at different points in time at substrate concentrations of 50 μM up to 1000 μm and the kinetic parameters KM and kcat are taken from the Lineweaver-Burk plot. For fengycin-thiophenol, a KM of 461 μm and a kcat of 0.33 min^−1 result from the cyclization reaction.
In the case of surfactin-peptide cyclase, kinetic reference data with a SNAC-substrate exists. In the case of surfactin-thiophenol, a KM of 126 μm and a kcat of 5.6 min^−1 are determined for the cyclization reaction, which corresponds to a kcat/KM value of 0.04 μm^−1 min^−1. Compared with that is the kinetic efficiency of surfactin-SNAC, represented by the kcat/KM value 0.0029 μm^−1 min^−1, 14 times less than with surfactin-thiophenol.

B1: recombinated fengycin-peptide cyclase (Bacillus subtilis subsp. subtilis str. 168) (protein)
chain: QNLFCFPPISGFGIYFKDLALLLNEKAAVYGFHFIEQDTRIEQYVNCMTDIQPEGPYVLLGYSAGGNLAFEVAQAMERKGLEVSDFIIVDAYLKEQPLPIDTGNDESAAYLPEAVREKVMKKKRNYQEYWAQLLNEGHIKASIHFIEAGIHPETSGHTGLTKWEGACGNYSEYTGFGAHKDMLEGTYAEKNADIILDILEKITSNQ
notes: recombinant fengycin TE
Km [1]: 461 µM
kcat [1]: 0.0055 s⁻¹

B2: surfactin-peptide cyclase (Bacillus subtilis subsp. subtilis str. 168) (protein)
chain: QIIFAFPPVLGYGLMYQNLSSRLPSYKLCAFDFIEEEDRLDRYADLIQKLQPEGPLTLFGYSAGCSLAFEAAKKLEEQGRIVQRIIMVDSYKKQGVSDLDGRTVESDVEALMNVNRDNEALNSEAVKHGLKQKTHAFYSYYVNLISTGQVKADIDLLTSGADFDMPEWLASWEEATTGVYRVKRGFGTHAEMLQGETLDRNAEILLEFLNTQT
notes: purified, isolated thioesterase domains or peptide cyclases from NRPS or PKS systems
Km [2]: 126 µM
kcat [2]: 0.0933 s⁻¹
kcat/Km [2]: 0.04 μm^−1 min^−1
